Test [1] has as its target T1, FcγRIIIa (human, UniProt P08637 17-208).
T1 construct: extracellular domain; also called FcgRIIIa; CD16A; not shown: His tag attached to the C terminus
Kind of test: SPR (Biacore), antibody captured on antigen-peptide chip, FcγR as analyte; relative binding amount. The method, then: Specifically, GpH7-TA7 and GpH7-TA45 (SEQ ID NO: 32) resulting from the introduction of L234Y, G236W, and S298A into GpH7-A5 and GpH7-B3, respectively, were prepared according to the method described in Reference Example 1. […] These antibodies were compared for the FcγRIIIa binding according to the method described in Reference Example 2 (Table 10).
(§1) Analysis of interaction between objective antibody and the FcγR was carried out using Biacore T100 (GE Healthcare). HBS-EP+ (GE Healthcare) was used as the running buffer, and the measurement temperature was set to 25° C. Chips produced by immobilizing the antigen peptide by the amine coupling method to a Series S Sencor Chip CM5 (GE Healthcare), or alternatively, chips produced by allowing preliminarily biotinylated antigen peptides to interact with and immobilize onto a Series S Sensor Chip SA (certified) (GE Healthcare) were used. Antibodies of interest were captured onto an antigen peptide-immobilized chip, and allowed to interact to each FcγR diluted with running buffer. To regenerate and repeatedly use the chip, the antibodies captured on the chip were washed off by reacting 10 mM glycine-HCl, pH 1.5.
On the technique in general: SPR reads the build-up and loss of mass on a sensor chip optically.

For test [2], the target named is T1, FcγRIIIa. Description: ratio of SPR KDs: KD of GpH7-G1d/GpL16-k0 divided by KD of this antibody. The protocol: (§2) The prepared antibodies were compared for the FcγRIIIa-binding activity using, as an indicator, KD for FcγRIIIa that was determined according to the method described in Reference Example 2.
as §1
(§3) Specifically, to calculate association rate constant ka (L/mol/s) and dissociation rate constant kd (1/s), sensorgrams obtained by measurement were processed for global fitting by Biacore Evaluation Software using 1:1 Langmuir binding model and dissociation constant KD (mol/1) was calculated from the resulting values.

Test [3] concerns the target T1, FcγRIIIa. Kind of test: ratio of SPR KDs: KD of GpH7-A5/GpH7-B3/GpL16-k0 divided by KD of this antibody. The protocol:
as §2, §1, §3

Test [4] addresses T1, FcγRIIIa. Description: SPR (Biacore), antibody captured on antigen-peptide chip, FcγR as analyte; relative binding amount. The protocol: GpH7-TA8 (SEQ ID NO: 33) and GpH7-B12 (SEQ ID NO: 12) resulting from the introduction of P329R into GpH7-TA7 and GpH7-B3, respectively, were prepared according to the method described in Reference Example 1.
as §1
This is another data set of the same source.

The target in test [5] is T2, FcgRIIaR (human, UniProt P12318 34-217).
T2 construct: extracellular domain; Soluble extracellular domain with C-terminal His tag, expressed in FreeStyle293 cells; also called FcγRIIa R; FcgRIIa type R; not shown: His tag at the C terminus
T2 sequence (looked up): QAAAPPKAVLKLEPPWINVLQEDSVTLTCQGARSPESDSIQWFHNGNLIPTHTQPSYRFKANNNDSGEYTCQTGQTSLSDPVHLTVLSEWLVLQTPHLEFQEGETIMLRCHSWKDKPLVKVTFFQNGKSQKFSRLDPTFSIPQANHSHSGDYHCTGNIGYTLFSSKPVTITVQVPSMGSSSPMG
Description: SPR (Biacore), antibody captured on chip, FcgR extracellular domain as analyte.

Test [6] addresses T3, FcgRIIb (human, UniProt P31994 43-217).
T3 construct: extracellular domain; Soluble extracellular domain with C-terminal His tag, expressed in FreeStyle293 cells; also called FcγRIIb; 2b; not shown: His tag at the C terminus
T3 sequence (looked up): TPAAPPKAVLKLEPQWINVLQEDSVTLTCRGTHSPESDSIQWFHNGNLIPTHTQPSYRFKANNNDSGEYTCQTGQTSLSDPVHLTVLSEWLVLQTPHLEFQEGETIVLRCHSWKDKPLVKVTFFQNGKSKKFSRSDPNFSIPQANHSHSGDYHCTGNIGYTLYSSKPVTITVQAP
The test is described as above.

For test [7], the target named is T3, FcgRIIb. Kind of test: SPR (Biacore); KD of the variant for FcgRIIaR divided by its KD for FcgRIIb.

T1 sequence (P08637 17-208): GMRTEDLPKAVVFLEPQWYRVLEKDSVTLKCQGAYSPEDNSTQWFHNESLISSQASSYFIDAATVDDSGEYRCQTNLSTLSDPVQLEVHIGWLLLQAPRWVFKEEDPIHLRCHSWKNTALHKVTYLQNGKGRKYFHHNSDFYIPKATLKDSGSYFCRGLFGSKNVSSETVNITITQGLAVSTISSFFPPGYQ

B1: GpH7-A5/GpH7-TA45/GpL16-k0 (antibody, human IgG1, kappa)
heavy 1: not shown
heavy 2: QVQLVQSGAEVKKPGASVTVSCKASGYTFTDYEMHWIRQPPGEGLEWIGAIDPKTGDTAYSESFQDRVTLTADKSTSTAYMELSSLTSEDTAVYYCTRFYSYTYWGQGTLVTVSSASTKGPSVFPLAPSSKSTSGGTAALGCLVKDYFPEPVTVSWNSGALTSGVHTFPAVLQSSGLYSLSSVVTVPSSSLGTQTYICNVNHKPSNTKVDKKVEPKSCDKTHTCPPCPAPEYLWGPSVFLFPPKPKDTLMISRTPEVTCVVVDVSHEDPEVKFNWYVDGVEVHNAKTKPREEQYNATYRVVSVLTVLHQDWLNGKEYKCKVSNKALPAPIEKTISKAKGQPREPQVYTLPPSRDELTKNQVSLTCLVKGFYPSDIAVEWESNGQPENNYKTTPPVLDSDGSFFLYSKLTVDKSRWQQGNVFSCSVMHEALHNHYTQESLSLSP
light: DIVMTQSPLSLPVTPGEPASISCQASESLVHSNRNTYLHWYLQKPGQSPQLLIYKVSNRFSGVPDRFSGSGSGTDFTLKISRVEAEDVGVYYCSQNTHVPPTFGQGTKVEIERTVAAPSVFIFPPSDEQLKSGTASVVCLLNNFYPREAKVQWKVDNALQSGNSQESVTEQDSKDSTYSLSSTLTLSKADYEKHKVYACEVTHQGLSSPVTKSFNRGEC
notes: Anti-glypican-3 IgG1 heterodimer; L234Y/G236W/S298A in H2 only
Take B1: the “FcγR BINDING ACTIVITY (relative FcγRIIIa binding)” value in test [1] is 225 relative, GpH7-A5/GpH7-B3/GpL16-k0 = 100.

B2: GpH7-TA7/GpH7-TA45/GpL16-k0 (antibody, human IgG1, kappa)
heavy 1: QVQLVQSGAEVKKPGASVTVSCKASGYTFTDYEMHWIRQPPGEGLEWIGAIDPKTGDTAYSESFQDRVTLTADKSTSTAYMELSSLTSEDTAVYYCTRFYSYTYWGQGTLVTVSSASTKGPSVFPLAPSSKSTSGGTAALGCLVKDYFPEPVTVSWNSGALTSGVHTFPAVLQSSGLYSLSSVVTVPSSSLGTQTYICNVNHKPSNTKVDKKVEPKSCDKTHTCPPCPAPEYLWGPSVFLFPPKPKDTLMISRTPEVTCVVVDVSHEDPEVKFNWYVDGVEVHNAKTKPREEQYNATYRVVSVLTVLHQDWLNGKEYKCKVSNKALPAPIEKTISKAKGQPREPQVYTLPPSRKELTKNQVSLTCLVKGFYPSDIAVEWESNGQPENNYKTTPPVLDSDGSFFLYSKLTVDKSRWQQGNVFSCSVMHEALHNRYTQKSLSLSP
heavy 2: QVQLVQSGAEVKKPGASVTVSCKASGYTFTDYEMHWIRQPPGEGLEWIGAIDPKTGDTAYSESFQDRVTLTADKSTSTAYMELSSLTSEDTAVYYCTRFYSYTYWGQGTLVTVSSASTKGPSVFPLAPSSKSTSGGTAALGCLVKDYFPEPVTVSWNSGALTSGVHTFPAVLQSSGLYSLSSVVTVPSSSLGTQTYICNVNHKPSNTKVDKKVEPKSCDKTHTCPPCPAPEYLWGPSVFLFPPKPKDTLMISRTPEVTCVVVDVSHEDPEVKFNWYVDGVEVHNAKTKPREEQYNATYRVVSVLTVLHQDWLNGKEYKCKVSNKALPAPIEKTISKAKGQPREPQVYTLPPSRDELTKNQVSLTCLVKGFYPSDIAVEWESNGQPENNYKTTPPVLDSDGSFFLYSKLTVDKSRWQQGNVFSCSVMHEALHNHYTQESLSLSP
light: DIVMTQSPLSLPVTPGEPASISCQASESLVHSNRNTYLHWYLQKPGQSPQLLIYKVSNRFSGVPDRFSGSGSGTDFTLKISRVEAEDVGVYYCSQNTHVPPTFGQGTKVEIERTVAAPSVFIFPPSDEQLKSGTASVVCLLNNFYPREAKVQWKVDNALQSGNSQESVTEQDSKDSTYSLSSTLTLSKADYEKHKVYACEVTHQGLSSPVTKSFNRGEC
notes: Anti-glypican-3 IgG1; The two chains differ only in D356K/H435R and K439E
Take B2: the “FcγR BINDING ACTIVITY (relative FcγRIIIa binding)” value in test [1] was 48 relative, GpH7-A5/GpH7-B3/GpL16-k0 = 100. In addition, the “KD ratio 1” value in test [2] was found to be 0.37 fold. Moreover, in test [3], the “KD ratio 2” value was 0.49 fold.

B3: GpH7-TA7/GpH7-B12/GpL16-k0 (antibody, human IgG1, kappa)
heavy 1: QVQLVQSGAEVKKPGASVTVSCKASGYTFTDYEMHWIRQPPGEGLEWIGAIDPKTGDTAYSESFQDRVTLTADKSTSTAYMELSSLTSEDTAVYYCTRFYSYTYWGQGTLVTVSSASTKGPSVFPLAPSSKSTSGGTAALGCLVKDYFPEPVTVSWNSGALTSGVHTFPAVLQSSGLYSLSSVVTVPSSSLGTQTYICNVNHKPSNTKVDKKVEPKSCDKTHTCPPCPAPEYLWGPSVFLFPPKPKDTLMISRTPEVTCVVVDVSHEDPEVKFNWYVDGVEVHNAKTKPREEQYNATYRVVSVLTVLHQDWLNGKEYKCKVSNKALPAPIEKTISKAKGQPREPQVYTLPPSRKELTKNQVSLTCLVKGFYPSDIAVEWESNGQPENNYKTTPPVLDSDGSFFLYSKLTVDKSRWQQGNVFSCSVMHEALHNRYTQKSLSLSP
heavy 2: not shown
light: DIVMTQSPLSLPVTPGEPASISCQASESLVHSNRNTYLHWYLQKPGQSPQLLIYKVSNRFSGVPDRFSGSGSGTDFTLKISRVEAEDVGVYYCSQNTHVPPTFGQGTKVEIERTVAAPSVFIFPPSDEQLKSGTASVVCLLNNFYPREAKVQWKVDNALQSGNSQESVTEQDSKDSTYSLSSTLTLSKADYEKHKVYACEVTHQGLSSPVTKSFNRGEC
notes: Anti-glypican-3 IgG1 heterodimer; L234Y/G236W/S298A in H1, P329R in H2
Regarding B3, the “FcγRIIIa BINDING ACTIVITY (relative)” value in test [4] is 11 relative, GpH7-A5/GpH7-B3/GpL16-k0 = 100.

B4: GpH7-TA8/GpH7-B3/GpL16-k0 (antibody, human IgG1, kappa)
heavy 1: QVQLVQSGAEVKKPGASVTVSCKASGYTFTDYEMHWIRQPPGEGLEWIGAIDPKTGDTAYSESFQDRVTLTADKSTSTAYMELSSLTSEDTAVYYCTRFYSYTYWGQGTLVTVSSASTKGPSVFPLAPSSKSTSGGTAALGCLVKDYFPEPVTVSWNSGALTSGVHTFPAVLQSSGLYSLSSVVTVPSSSLGTQTYICNVNHKPSNTKVDKKVEPKSCDKTHTCPPCPAPEYLWGPSVFLFPPKPKDTLMISRTPEVTCVVVDVSHEDPEVKFNWYVDGVEVHNAKTKPREEQYNATYRVVSVLTVLHQDWLNGKEYKCKVSNKALRAPIEKTISKAKGQPREPQVYTLPPSRKELTKNQVSLTCLVKGFYPSDIAVEWESNGQPENNYKTTPPVLDSDGSFFLYSKLTVDKSRWQQGNVFSCSVMHEALHNRYTQKSLSLSP
heavy 2: not shown
light: DIVMTQSPLSLPVTPGEPASISCQASESLVHSNRNTYLHWYLQKPGQSPQLLIYKVSNRFSGVPDRFSGSGSGTDFTLKISRVEAEDVGVYYCSQNTHVPPTFGQGTKVEIERTVAAPSVFIFPPSDEQLKSGTASVVCLLNNFYPREAKVQWKVDNALQSGNSQESVTEQDSKDSTYSLSSTLTLSKADYEKHKVYACEVTHQGLSSPVTKSFNRGEC
notes: Anti-glypican-3 IgG1 heterodimer; L234Y/G236W/S298A/P329R all in H1
With B4, the “FcγRIIIa BINDING ACTIVITY (relative)” value in test [4] was 150 relative, GpH7-A5/GpH7-B3/GpL16-k0 = 100.

B5: IL6R-BP256/IL6R-L (antibody, human IgG1, kappa)
heavy: QVQLQESGPGLVKPSETLSLTCAVSGHSISHDHAWSWVRQPPGEGLEWIGFISYSGITNYNPSLQGRVTISRDNSKNTLYLQMNSLRAEDTAVYYCARSLARTTAMDYWGEGTLVTVSSASTKGPSVFPLAPSSKSTSGGTAALGCLVKDYFPEPVTVSWNSGALTSGVHTFPAVLQSSGLYSLSSVVTVPSSSLGTQTYICNVNHKPSNTKVDKKVEPKSCDKTHTCPPCPAPDLLGDDDVFLFPPKPKDTLMISRTPEVTCVVVDVSDEDGEVKFNWYVDGVEVHNAKTKPREEQYNSTYRVVSVLTVLHQDWLNGKEYKCKVSNKALPRPIEKTISKAKGQPREPQVYTLPPSRDELTKNQVSLTCLVKGFYPSDIAVEWESNGQPENNYKTTPPVLDSDGSFFLYSKLTVDKSRWQQGNVFSCSVMHEALHNHYTQESLSLSP
light: not shown
notes: Homodimerized antibody, S239D in both H chains
With B5, the entries for the “Relative KD (KD of IL6R-B3/IL6R-L divided by KD of the variant)” value in test [5] and in test [6] were 1.5 and 35.7, respectively. The “KD(IIaR)/KD(IIb)” value in test [7] came to 8.4.

B6: IL6R-BP257/IL6R-L (antibody, human IgG1, kappa)
heavy: QVQLQESGPGLVKPSETLSLTCAVSGHSISHDHAWSWVRQPPGEGLEWIGFISYSGITNYNPSLQGRVTISRDNSKNTLYLQMNSLRAEDTAVYYCARSLARTTAMDYWGEGTLVTVSSASTKGPSVFPLAPSSKSTSGGTAALGCLVKDYFPEPVTVSWNSGALTSGVHTFPAVLQSSGLYSLSSVVTVPSSSLGTQTYICNVNHKPSNTKVDKKVEPKSCDKTHTCPPCPAPDLLGDDEVFLFPPKPKDTLMISRTPEVTCVVVDVSDEDGEVKFNWYVDGVEVHNAKTKPREEQYNSTYRVVSVLTVLHQDWLNGKEYKCKVSNKALPRPIEKTISKAKGQPREPQVYTLPPSRDELTKNQVSLTCLVKGFYPSDIAVEWESNGQPENNYKTTPPVLDSDGSFFLYSKLTVDKSRWQQGNVFSCSVMHEALHNHYTQESLSLSP
light: not shown
notes: Homodimerized antibody, S239E in both H chains
Turning to B6, the “Relative KD (KD of IL6R-B3/IL6R-L divided by KD of the variant)” value in test [5] amounted to 0.9; in test [6] it was 7.2. For the same molecule, the “KD(IIaR)/KD(IIb)” value in test [7] is 3.

For the origin of these results see patent US20150344570A1 (published 2015).
